In test [1] the test system is HUVECs. Nature of the test: HUVECs adhesion to plates coated with βig-h3, its fas-1 domains or mutants. Format: cell-based, human. The settings on record: 10 μg/ml protein coated on plate; attached cells by absorbance at 405 nm; control BSA. As for the experimental part: Cell adhesion assay was performed according to the method described by Kim, J.-E. et al., J. Biol. Chem., 277:4615946165, 2002. For this purpose, 10 μg/ml of each of the recombinant proteins (βig-h3 His-β-b, βig-h3 D-I, βig-h3 D-II, βig-h3 D-III and βig-h3 D-IV) prepared in Example 1 was placed into a flat-bottomed 96-well ELISA (enzyme-linked immunosorbent assay) plate (Costar, Corning Inc., NY) and then incubated overnight at 4° C., to coat the surface of the plate. As a control, 2% BSA was coated on the plate. Then, the plate was treated with PBS (phosphate-buffered saline) containing 2% BSA, and blocked at room temperature for one hour.
Meanwhile, HUVECs (human umbilical vein endothelial cells; Clonetics, San Diego, Calif.) were incubated in EGM medium (Clonetics, San Diego, Calif.) containing 2% FBS (Fetal Bovine Serum) under a condition of 37° C. and 5% CO2. The incubated cells were suspended in medium at a density of 3×10^5 cells/ml, and 0.1 ml of the cell suspension was added to each well of the plate. Next, the cells were incubated at 37° C. for 30 minutes and washed one time with PBS buffer to remove cells which had not been attached to the plate. Attached cells were added with 50 mM citrate buffer (pH 5.0) containing 3.75 mM p-nitrophenyl-N-acetyl β-D-glycosaminide and 0.25% Triton X-100, and incubated at 37° C. for one hour. Thereafter, 50 mM glycine buffer (pH 10.4) containing 5 mM EDTA was added to block the activity of the enzyme. The absorbance was measured at a 405-nm in a Bio-Rad model 550 microplate reader. Here, the higher the number of cells adhered to the plate, the higher the absorbance.
Each of the deletion mutants was generated by PCR using a cDNA template encoding the fourth fas-1 domain (SEQ ID NO: 5) (Kim, J.-E. et al., J. Biol. Chem., 275:30907-30915, 2000). Each of the PCR-amplified DNA fragments was cloned into the EcoRV/Xhol sites of the pET-29b(+) vector (Novagen; Madison, Wis.). The mutations were confirmed by sequence analysis, and the deletion mutants were expressed and purified according to a prior method (Kim, J.-E., et al., J. Cell. Biochem., 77:169-178, 2000). Thereafter, the cell adhesion activity of each of the deletion mutants was tested in the same manner as in Example 2.
Previously, the present inventors reported that an YH motif, which contains tyrosine-histidine residues highly conserved in the fragment corresponding to amino acids 548-614 of SEQ ID NO: 1, and several leucine and isoleucine residues adjacent to the tyrosine-histidine residues, binds to the αvβ5 integrin (Kim, J.-E., et al., J. Biol. Chem., 277:46159-46165, 2002). Thus, the present inventors suspected that the YH motif may also interact with the αvβ3 integrin to mediate endothelial cell adhesion. For this reason, in the present invention, the tyrosine-histidine residues conserved in the fas-1 domains, and/or the leucine and isolucine residues adjacent to the tyrosine-histidine residues, were substituted in various combinations by alanine or serine (Kim, J.-E., et al., J. Biol. Chem. 277:4615946165, 2002)(see FIG. 4b). The amino acid sequences of the prepared YH motif mutants are shown in SEQ ID NO: 17 to SEQ ID NO: 22. The mutations were confirmed by sequence analysis. Then, the substitution mutants were expressed and purified according to a known method (Kim, J.-E., et al., J. Cell. Biochem., 77:169-178, 2000). The substitution mutants were tested for their cell adhesion activity according to the same manner as in Example 2.

Test [2] deals with HUVECs. As to the kind of experiment: HUVECs migration assay in transwell plate coated with βig-h3. In kind it is cell-based, human. The settings on record: 10 μg/ml βig-h3 His-β-b coated; 6-8 hours; data not shown. The method, then: Firstly, to examine whether βig-h3 is involved in the migration of endothelial cells, the present inventors performed cell migration assay. The cell migration assay was performed in a transwell plate (8 μm pore size, Costar, Cambridge, Mass.). The undersurface of the membrane was coated with the recombinant βig-h3 His-β-b protein (10 μg/ml) prepared in Example 1 at 4° C., and then, blocked for 1 hour at room temperature with PBS buffer containing 2% BSA. Meanwhile, HUVECs were added with an anti-αvβ3 antibody (LM609) or an anti-αvβ5 antibody (P1F6) and preincubated at 37° C. for 30 minutes. A control was added with mouse IgG. Then, the HUVECs preincubated with the antibody were suspended in medium at a density of 3×10^5 cells/ml, and 0.1 ml of the cell suspension was added to the upper compartment of the filter. The cells were allowed to migrate at 37° C. for 6-8 hours.
Migration was terminated by removing the cells from the upper compartment of the filter with a cotton swab. The filters were fixed with 8% glutaraldehyde and stained with crystal violet. The extent of cell migration was determined by light microscope, and within each well, cell counting was done in nine randomly selected fields HPF (Microscopic high power fields, ×200).
Then, the present inventors examined whether the migration of endothelial cells is inhibited by the YH18 synthetic peptide. […]

Here are results for one molecule from patent US7919464B2, “Use of a peptide that interacts with αvβ3 integrin of endothelial cell” (Kyungpook National University Industry-Academic Cooperation …, priority 2003, dated 2011).

B1: βig-h3: recombinant human βig-h3 protein that expresses all of four fas-1 domains; biotinylated form used in binding assay (protein)
chain: YQRKICGKSTVISYECCPGYEKVPGEKGCPAALPLSNLYETLGVVGSTTTQLYTDRTEKLRPEMEGPGSFTIFAPSNEAWASLPAEVLDSLVSNVNIELLNALRYHMVGRRVLTDELKHGMTLTSMYQNSNIQIHHYPNGIVTVNCARLLKADHHATNGVVHLIDKVISTITNNIQQIIEIEDTFETLRAAVAASGLNTMLEGNGQYTLLAPTNEAFEKIPSETLNRILGDPEALRDLLNNHILKSAMCAEAIVAGLSVETLEGTTLEVGCSGDMLTINGKAIISNKDILATNGVIHYIDELLIPDSAKTLFELAAESDVSTAIDLFRQAGLGNHLSGSERLTLLAPLNSVFKDGTPPIDAHTRNLLRNHIIKDQLASKYLYHGQTLETLGGKKLRVFVYRNSLCIENSCIAAHDKRGRYGTLFTMDRVLTPPMGTVMDVLKGDNRFSMLVAAIQSAGLTETLNREGVYTVFAPTNEAFRALPPRERSRLLGDAKELANILKYHIGDEILVSGGIGALVRLKSLQGDKLEVSLKNNVVSVNKEPVAEPDIMATNGVVHVITNVLQPPANRPQERGDELADSALEI
On to B1, for which the “endothelial cell (HUVECs) adhesion activity” value in test [1] is given as “mediated the adhesion of endothelial cells”. Moreover, in test [2], the “migration of HUVECs in transwells whose undersurface was coated with βig-h3” value was “enhanced”.
